Source: patent US20140080757A1 (ZEALAND PHARMA A S, published 2014)
Numbered stars: 1 amine (or outer) side, 2 acyl side, 3 side chain; on linkers, the order of the positions; unused ones are H or OH. Square brackets hold non-standard residues; d marks the D form. Side chains are listed from the residue outwards. * marks the point of attachment. γGlu = O=C(O)[C@H](CCC(=O)[*:2])N[*:1]; Palmitoyl = CCCCCCCCCCCCCCCC(=O)*; Aib = CC(C)(N)C(=O)O

T1: endogenous GLP-1 receptor of a murine insulinoma cell line (murine, UniProt O35659 22-463)
T1 sequence (looked up): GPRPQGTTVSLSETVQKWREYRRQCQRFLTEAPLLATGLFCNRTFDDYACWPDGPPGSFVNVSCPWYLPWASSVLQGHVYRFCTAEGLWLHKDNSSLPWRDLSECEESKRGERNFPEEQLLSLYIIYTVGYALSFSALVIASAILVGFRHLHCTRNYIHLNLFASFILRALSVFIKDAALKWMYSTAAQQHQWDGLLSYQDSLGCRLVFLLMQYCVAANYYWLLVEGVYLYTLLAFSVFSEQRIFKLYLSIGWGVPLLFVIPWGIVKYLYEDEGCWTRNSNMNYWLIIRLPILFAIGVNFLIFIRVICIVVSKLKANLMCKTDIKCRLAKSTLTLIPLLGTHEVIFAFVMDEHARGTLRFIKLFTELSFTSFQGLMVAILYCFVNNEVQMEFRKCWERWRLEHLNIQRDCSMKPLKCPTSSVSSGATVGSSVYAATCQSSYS

B1: Compound 2 (peptide)
peptide: H-HSQGTFTSDYSKYLDSK([γGlu-Palmitoyl])AAHDFVEWLLSA-OH
SMILES: CCCCCCCCCCCCCCCC(=O)N[C@@H](CCC(=O)NCCCC[C@H](NC(=O)[C@H](CO)NC(=O)[C@H](CC(=O)O)NC(=O)[C@H](CC(C)C)NC(=O)[C@H](Cc1ccc(O)cc1)NC(=O)[C@H](CCCCN)NC(=O)[C@H](CO)NC(=O)[C@H](Cc1ccc(O)cc1)NC(=O)[C@H](CC(=O)O)NC(=O)[C@H](CO)NC(=O)[C@@H](NC(=O)[C@H](Cc1ccccc1)NC(=O)[C@@H](NC(=O)CNC(=O)[C@H](CCC(N)=O)NC(=O)[C@H](CO)NC(=O)[C@@H](N)Cc1c[nH]cn1)[C@@H](C)O)[C@@H](C)O)C(=O)N[C@@H](C)C(=O)N[C@@H](C)C(=O)N[C@@H](Cc1c[nH]cn1)C(=O)N[C@@H](CC(=O)O)C(=O)N[C@@H](Cc1ccccc1)C(=O)N[C@H](C(=O)N[C@@H](CCC(=O)O)C(=O)N[C@@H](Cc1c[nH]c2ccccc12)C(=O)N[C@@H](CC(C)C)C(=O)N[C@@H](CC(C)C)C(=O)N[C@@H](CO)C(=O)N[C@@H](C)C(=O)O)C(C)C)C(=O)O
B2: Compound 11 (peptide)
peptide: H-H[Aib]QGTFTSDYSKYLDEK([γGlu-Palmitoyl])RAKDFIEWLLS-OH
SMILES: CCCCCCCCCCCCCCCC(=O)N[C@@H](CCC(=O)NCCCC[C@H](NC(=O)[C@H](CCC(=O)O)NC(=O)[C@H](CC(=O)O)NC(=O)[C@H](CC(C)C)NC(=O)[C@H](Cc1ccc(O)cc1)NC(=O)[C@H](CCCCN)NC(=O)[C@H](CO)NC(=O)[C@H](Cc1ccc(O)cc1)NC(=O)[C@H](CC(=O)O)NC(=O)[C@H](CO)NC(=O)[C@@H](NC(=O)[C@H](Cc1ccccc1)NC(=O)[C@@H](NC(=O)CNC(=O)[C@H](CCC(N)=O)NC(=O)C(C)(C)NC(=O)[C@@H](N)Cc1c[nH]cn1)[C@@H](C)O)[C@@H](C)O)C(=O)N[C@@H](CCCNC(=N)N)C(=O)N[C@@H](C)C(=O)N[C@@H](CCCCN)C(=O)N[C@@H](CC(=O)O)C(=O)N[C@@H](Cc1ccccc1)C(=O)N[C@H](C(=O)N[C@@H](CCC(=O)O)C(=O)N[C@@H](Cc1c[nH]c2ccccc12)C(=O)N[C@@H](CC(C)C)C(=O)N[C@@H](CC(C)C)C(=O)N[C@@H](CO)C(=O)O)[C@@H](C)CC)C(=O)O
B3: Compound 3 (peptide)
peptide: H-HSQGTFTSDYSKYLDSK([γGlu-Palmitoyl])AAHDFVEWLLRA-OH
SMILES: CCCCCCCCCCCCCCCC(=O)N[C@@H](CCC(=O)NCCCC[C@H](NC(=O)[C@H](CO)NC(=O)[C@H](CC(=O)O)NC(=O)[C@H](CC(C)C)NC(=O)[C@H](Cc1ccc(O)cc1)NC(=O)[C@H](CCCCN)NC(=O)[C@H](CO)NC(=O)[C@H](Cc1ccc(O)cc1)NC(=O)[C@H](CC(=O)O)NC(=O)[C@H](CO)NC(=O)[C@@H](NC(=O)[C@H](Cc1ccccc1)NC(=O)[C@@H](NC(=O)CNC(=O)[C@H](CCC(N)=O)NC(=O)[C@H](CO)NC(=O)[C@@H](N)Cc1c[nH]cn1)[C@@H](C)O)[C@@H](C)O)C(=O)N[C@@H](C)C(=O)N[C@@H](C)C(=O)N[C@@H](Cc1c[nH]cn1)C(=O)N[C@@H](CC(=O)O)C(=O)N[C@@H](Cc1ccccc1)C(=O)N[C@H](C(=O)N[C@@H](CCC(=O)O)C(=O)N[C@@H](Cc1c[nH]c2ccccc12)C(=O)N[C@@H](CC(C)C)C(=O)N[C@@H](CC(C)C)C(=O)N[C@@H](CCCNC(=N)N)C(=O)N[C@@H](C)C(=O)O)C(C)C)C(=O)O
B4: Compound 5 (peptide)
peptide: H-H[Aib]QGTFTSDYSKYLDSK([γGlu-Palmitoyl])AAHDFVEWLESA-NH2
SMILES: CCCCCCCCCCCCCCCC(=O)N[C@@H](CCC(=O)NCCCC[C@H](NC(=O)[C@H](CO)NC(=O)[C@H](CC(=O)O)NC(=O)[C@H](CC(C)C)NC(=O)[C@H](Cc1ccc(O)cc1)NC(=O)[C@H](CCCCN)NC(=O)[C@H](CO)NC(=O)[C@H](Cc1ccc(O)cc1)NC(=O)[C@H](CC(=O)O)NC(=O)[C@H](CO)NC(=O)[C@@H](NC(=O)[C@H](Cc1ccccc1)NC(=O)[C@@H](NC(=O)CNC(=O)[C@H](CCC(N)=O)NC(=O)C(C)(C)NC(=O)[C@@H](N)Cc1c[nH]cn1)[C@@H](C)O)[C@@H](C)O)C(=O)N[C@@H](C)C(=O)N[C@@H](C)C(=O)N[C@@H](Cc1c[nH]cn1)C(=O)N[C@@H](CC(=O)O)C(=O)N[C@@H](Cc1ccccc1)C(=O)N[C@H](C(=O)N[C@@H](CCC(=O)O)C(=O)N[C@@H](Cc1c[nH]c2ccccc12)C(=O)N[C@@H](CC(C)C)C(=O)N[C@@H](CCC(=O)O)C(=O)N[C@@H](CO)C(=O)N[C@@H](C)C(N)=O)C(C)C)C(=O)O
B5: Compound 6 (peptide)
peptide: H-HSQGTFTSDYSRYLDSK([γGlu-Palmitoyl])AAEDFVEWLLRA-NH2
SMILES: CCCCCCCCCCCCCCCC(=O)N[C@@H](CCC(=O)NCCCC[C@H](NC(=O)[C@H](CO)NC(=O)[C@H](CC(=O)O)NC(=O)[C@H](CC(C)C)NC(=O)[C@H](Cc1ccc(O)cc1)NC(=O)[C@H](CCCNC(=N)N)NC(=O)[C@H](CO)NC(=O)[C@H](Cc1ccc(O)cc1)NC(=O)[C@H](CC(=O)O)NC(=O)[C@H](CO)NC(=O)[C@@H](NC(=O)[C@H](Cc1ccccc1)NC(=O)[C@@H](NC(=O)CNC(=O)[C@H](CCC(N)=O)NC(=O)[C@H](CO)NC(=O)[C@@H](N)Cc1c[nH]cn1)[C@@H](C)O)[C@@H](C)O)C(=O)N[C@@H](C)C(=O)N[C@@H](C)C(=O)N[C@@H](CCC(=O)O)C(=O)N[C@@H](CC(=O)O)C(=O)N[C@@H](Cc1ccccc1)C(=O)N[C@H](C(=O)N[C@@H](CCC(=O)O)C(=O)N[C@@H](Cc1c[nH]c2ccccc12)C(=O)N[C@@H](CC(C)C)C(=O)N[C@@H](CC(C)C)C(=O)N[C@@H](CCCNC(=N)N)C(=O)N[C@@H](C)C(N)=O)C(C)C)C(=O)O
B6: Compound 1 (peptide)
peptide: H-H[Aib]QGTFTSDYSKYLDSK([γGlu-Palmitoyl])AAHDFVEWLLS-OH
SMILES: CCCCCCCCCCCCCCCC(=O)N[C@@H](CCC(=O)NCCCC[C@H](NC(=O)[C@H](CO)NC(=O)[C@H](CC(=O)O)NC(=O)[C@H](CC(C)C)NC(=O)[C@H](Cc1ccc(O)cc1)NC(=O)[C@H](CCCCN)NC(=O)[C@H](CO)NC(=O)[C@H](Cc1ccc(O)cc1)NC(=O)[C@H](CC(=O)O)NC(=O)[C@H](CO)NC(=O)[C@@H](NC(=O)[C@H](Cc1ccccc1)NC(=O)[C@@H](NC(=O)CNC(=O)[C@H](CCC(N)=O)NC(=O)C(C)(C)NC(=O)[C@@H](N)Cc1c[nH]cn1)[C@@H](C)O)[C@@H](C)O)C(=O)N[C@@H](C)C(=O)N[C@@H](C)C(=O)N[C@@H](Cc1c[nH]cn1)C(=O)N[C@@H](CC(=O)O)C(=O)N[C@@H](Cc1ccccc1)C(=O)N[C@H](C(=O)N[C@@H](CCC(=O)O)C(=O)N[C@@H](Cc1c[nH]c2ccccc12)C(=O)N[C@@H](CC(C)C)C(=O)N[C@@H](CC(C)C)C(=O)N[C@@H](CO)C(=O)O)C(C)C)C(=O)O

Each binder was assayed against human glucagon receptor (Glucagon-R) (human, UniProt P47871 26-477) (assay: cell-based or functional assay).
human glucagon receptor (Glucagon-R), sequence (P47871 26-477): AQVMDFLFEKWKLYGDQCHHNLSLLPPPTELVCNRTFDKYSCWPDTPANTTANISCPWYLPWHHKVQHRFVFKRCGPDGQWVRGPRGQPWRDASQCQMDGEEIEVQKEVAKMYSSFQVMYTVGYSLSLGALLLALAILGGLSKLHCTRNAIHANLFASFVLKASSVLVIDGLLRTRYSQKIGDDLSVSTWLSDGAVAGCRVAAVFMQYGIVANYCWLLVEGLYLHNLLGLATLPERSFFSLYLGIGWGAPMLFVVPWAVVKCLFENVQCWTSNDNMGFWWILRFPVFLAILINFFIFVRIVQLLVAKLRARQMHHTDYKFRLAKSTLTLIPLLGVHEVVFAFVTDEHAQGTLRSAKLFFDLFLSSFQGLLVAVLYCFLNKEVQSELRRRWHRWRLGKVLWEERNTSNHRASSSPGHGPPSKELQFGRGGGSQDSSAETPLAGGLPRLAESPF

EC50 hGCGR CHO-K1 [nM] (cAMP)	Binder
1.56	HXQGTFTSDYSKYLDEXAAKDFIEWLLSA (Aib at position 2; Lys 17 K(Hexadecanoyl-isoGlu); C-terminal amide (-NH2)) [Compound 4]
0.31	B1
0.61	B2
0.35	B3
0.46	B4
0.46	B5
0.9	B6

Each binder was assayed against human glucagon-like peptide 1 receptor (GLP-1R) (human, UniProt P43220 24-463) (assay: cell-based or functional assay).

EC50 hGLP-1R CHO-K1 [nM] (cAMP)	Ratio GLP-1/Glucagon (EC50 hGLP-1R / EC50 hGCGR) [ratio]	Binder
0.38	0.24	HXQGTFTSDYSKYLDEXAAKDFIEWLLSA (Aib at position 2; Lys 17 K(Hexadecanoyl-isoGlu); C-terminal amide (-NH2)) [Compound 4]
0.77	2.48	B1
0.64	1.05	B2
0.91	2.6	B3
0.16	0.35	B4
0.35	0.76	B5
0.54	0.6	B6

The binders below were run against T1, endogenous GLP-1 receptor of a murine … (assay: cell-based or functional assay).

EC50 GLP-1R (murine insulinoma cells) [nM] (cAMP)	Binder
0.95	HXQGTFTSDYSKYLDEXAAKDFIEWLLSA (Aib at position 2; Lys 17 K(Hexadecanoyl-isoGlu); C-terminal amide (-NH2)) [Compound 4]
1.41	B1
1.01	B2
1.06	B3
0.54	B4
1.14	B5
1.47	B6

What follows are binders tested against endogenous glucagon receptor of primary rat hepatocytes (rat, UniProt P30082 27-485) (assay: cell-based or functional assay).
endogenous glucagon receptor of primary rat hepatocytes, sequence (P30082 27-485): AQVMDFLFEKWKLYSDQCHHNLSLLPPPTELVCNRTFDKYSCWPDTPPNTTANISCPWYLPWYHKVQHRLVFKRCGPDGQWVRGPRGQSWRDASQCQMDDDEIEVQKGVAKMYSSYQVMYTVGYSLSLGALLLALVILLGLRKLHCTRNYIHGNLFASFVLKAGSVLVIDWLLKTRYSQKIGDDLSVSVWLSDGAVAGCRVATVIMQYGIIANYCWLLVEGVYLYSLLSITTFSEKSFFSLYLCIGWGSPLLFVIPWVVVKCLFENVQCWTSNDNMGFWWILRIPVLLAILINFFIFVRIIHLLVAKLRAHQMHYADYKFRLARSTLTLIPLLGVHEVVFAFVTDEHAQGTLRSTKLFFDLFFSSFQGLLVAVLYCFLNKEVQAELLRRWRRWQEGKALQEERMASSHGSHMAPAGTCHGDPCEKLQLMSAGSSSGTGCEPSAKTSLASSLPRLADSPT

EC50 GLP-1R Rat hepat. [nM] (inhibition of glycogen synthesis)	Binder
0.35	HXQGTFTSDYSKYLDEXAAKDFIEWLLSA (Aib at position 2; Lys 17 K(Hexadecanoyl-isoGlu); C-terminal amide (-NH2)) [Compound 4]
0.43	B1
0.16	B3
0.03	B4
2.87	B5
